# From IntAct's records for PubMed 31515488
# B1: Translation initiation factor eIF2B subunit beta (Homo sapiens), P49770 (parent)
# chain: MPGSAAKGSELSERIESFVETLKRGGGPRSSEEMARETLGLLRQIITDHRWSNAGELMELIRREGRRMTAAQPSETTVGNMVRRVLKIIREEYGRLHGRSDESDQQESLHKLLTSGGLNEDFSFHYAQLQSNIIEAINELLVELEGTMENIAAQALEHIHSNEVIMTIGFSRTVEAFLKEAARKRKFHVIVAECAPFCQGHEMAVNLSKAGIETTVMTDAAIFAVMSRVNKVIIGTKTILANGALRAVTGTHTLALAAKHHSTPLIVCAPMFKLSPQFPNEEDSFHKFVAPEEVLPFTEGDILEKVSVHCPVFDYVPPELITLFISNIGGNAPSYIYRLMSELYHPDDHVL
# B2: Zinc finger protein 512B (Homo sapiens), Q96KM6 (parent)
# chain: MTDPFCVGGRRLPGSSKSGPGKDGSRKEVRLPMLHDPPKMGMPVVRGGQTVPGQAPLCFDPGSPASDKTEGKKKGRPKAENQALRDIPLSLMNDWKDEFKAHSRVKCPNSGCWLEFPSIYGLKYHYQRCQGGAISDRLAFPCPFCEAAFTSKTQLEKHRIWNHMDRPLPASKPGPISRPVTISRPVGVSKPIGVSKPVTIGKPVGVSKPIGISKPVSVGRPMPVTKAIPVTRPVPVTKPVTVSRPMPVTKAMPVTKPITVTKSVPVTKPVPVTKPITVTKLVTVTKPVPVTKPVTVSRPIVVSKPVTVSRPIAISRHTPPCKMVLLTRSENKAPRATGRNSGKKRAADSLDTCPIPPKQARPENGEYGPSSMGQSSAFQLSADTSSGSLSPGSRPSGGMEALKAAGPASPPEEDPERTKHRRKQKTPKKFTGEQPSISGTFGLKGLVKAEDKARVHRSKKQEGPGPEDARKKVPAAPITVSKEAPAPVAHPAPGGPEEQWQRAIHERGEAVCPTCNVVTRKTLVGLKKHMEVCQKLQDALKCQHCRKQFKSKAGLNYHTMAEHSAKPSDAEASEGGEQEERERLRKVLKQMGRLRCPQEGCGAAFSSLMGYQYHQRRCGKPPCEVDSPSFPCTHCGKTYRSKAGHDYHVRSEHTAPPPEEPTDKSPEAEDPLGVERTPSGRVRRTSAQVAVFHLQEIAEDELARDWTKRRMKDDLVPETARLNYTRPGLPTLNPQLLEAWKNEVKEKGHVNCPNDCCEAIYSSVSGLKAHLASCSKGAHLAGKYRCLLCPKEFSSESGVKYHILKTHAENWFRTSADPPPKHRSQDSLVPKKEKKKNLAGGKKRGRKPKERTPEEPVAKLPPRRDDWPPGCRDKGARGSTGRKVGVSKAPEK
# B3: Cysteine-rich C-terminal protein 1 (Homo sapiens), Q9UGL9 (parent)
# chain: MSSQQSAVSAKGFSKGSSQGPAPCPAPAPTPAPASSSSCCGSGRGCCGDSGCCGSSSTSCCCFPRRRRRQRSSGCCCCGGGSQRSQRSNNRSSGCCSGC
# partner: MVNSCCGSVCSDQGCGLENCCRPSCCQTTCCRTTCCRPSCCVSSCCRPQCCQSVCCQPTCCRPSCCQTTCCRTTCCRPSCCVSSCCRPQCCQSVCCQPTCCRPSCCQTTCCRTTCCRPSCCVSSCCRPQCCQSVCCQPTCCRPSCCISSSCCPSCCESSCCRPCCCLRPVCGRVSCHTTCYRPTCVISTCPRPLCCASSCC
# B4: Keratin, type I cytoskeletal 18 (Homo sapiens), P05783 (parent)
# chain: MSFTTRSTFSTNYRSLGSVQAPSYGARPVSSAASVYAGAGGSGSRISVSRSTSFRGGMGSGGLATGIAGGLAGMGGIQNEKETMQSLNDRLASYLDRVRSLETENRRLESKIREHLEKKGPQVRDWSHYFKIIEDLRAQIFANTVDNARIVLQIDNARLAADDFRVKYETELAMRQSVENDIHGLRKVIDDTNITRLQLETEIEALKEELLFMKKNHEEEVKGLQAQIASSGLTVEVDAPKSQDLAKIMADIRAQYDELARKNREELDKYWSQQIEESTTVVTTQSAEVGAAETTLTELRRTVQSLEIDLDSMRNLKASLENSLREVEARYALQMEQLNGILLHLESELAQTRAEGQRQAQEYEALLNIKVKLEAEIATYRRLLEDGEDFNLGDALDSSNSMQTIQKTTTRRIVDGKVVSETNDTKVLRH
# partner: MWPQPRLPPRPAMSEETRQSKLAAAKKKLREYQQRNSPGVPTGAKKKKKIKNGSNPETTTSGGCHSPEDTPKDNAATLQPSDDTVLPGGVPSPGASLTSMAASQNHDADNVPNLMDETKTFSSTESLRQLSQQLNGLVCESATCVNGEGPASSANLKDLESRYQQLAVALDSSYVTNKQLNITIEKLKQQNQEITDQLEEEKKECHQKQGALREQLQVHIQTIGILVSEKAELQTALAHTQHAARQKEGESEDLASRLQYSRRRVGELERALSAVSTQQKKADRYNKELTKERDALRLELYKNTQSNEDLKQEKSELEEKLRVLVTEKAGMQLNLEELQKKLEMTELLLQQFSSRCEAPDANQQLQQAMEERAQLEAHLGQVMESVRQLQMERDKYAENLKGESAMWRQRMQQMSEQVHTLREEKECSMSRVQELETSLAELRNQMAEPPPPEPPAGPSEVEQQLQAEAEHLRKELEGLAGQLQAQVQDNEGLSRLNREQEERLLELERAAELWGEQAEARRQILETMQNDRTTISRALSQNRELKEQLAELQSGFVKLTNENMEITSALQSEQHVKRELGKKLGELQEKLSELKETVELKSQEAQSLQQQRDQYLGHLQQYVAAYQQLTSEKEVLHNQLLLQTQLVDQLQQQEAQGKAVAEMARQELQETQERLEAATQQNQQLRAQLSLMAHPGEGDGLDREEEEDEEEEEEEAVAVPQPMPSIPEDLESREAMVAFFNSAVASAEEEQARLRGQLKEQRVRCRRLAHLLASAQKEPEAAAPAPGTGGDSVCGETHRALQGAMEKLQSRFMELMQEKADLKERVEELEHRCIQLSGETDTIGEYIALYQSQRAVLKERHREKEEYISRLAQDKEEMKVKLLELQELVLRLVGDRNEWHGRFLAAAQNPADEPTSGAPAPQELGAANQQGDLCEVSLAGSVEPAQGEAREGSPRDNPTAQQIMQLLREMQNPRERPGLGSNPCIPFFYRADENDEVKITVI
# B5: Transcription initiation factor IIA subunit 1 (Homo sapiens), P52655 (parent)
# chain: MANSANTNTVPKLYRSVIEDVINDVRDIFLDDGVDEQVLMELKTLWENKLMQSRAVDGFHSEEQQLLLQVQQQHQPQQQQHHHHHHHQQAQPQQTVPQQAQTQQVLIPASQQATAPQVIVPDSKLIQHMNASNMSAAATAATLALPAGVTPVQQILTNSGQLLQVVRAANGAQYIFQPQQSVVLQQQVIPQMQPGGVQAPVIQQVLAPLPGGISPQTGVIIQPQQILFTGNKTQVIPTTVAAPTPAQAQITATGQQQPQAQPAQTQAPLVLQVDGTGDTSSEEDEDEEEDYDDDEEEDKEKDGAEDGQVEEEPLNSEDDVSDEEGQELFDTENVVVCQYDKIHRSKNKWKFHLKDGIMNLNGRDYIFSKAIGDAEW
# partner: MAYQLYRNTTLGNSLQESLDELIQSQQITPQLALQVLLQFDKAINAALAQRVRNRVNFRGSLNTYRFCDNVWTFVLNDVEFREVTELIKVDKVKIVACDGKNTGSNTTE
# B6: Microtubule-associated tumor suppressor candidate 2 (Homo sapiens), Q5JR59-3 (parent)
# chain: MGHCCCKPYNCLQCLDKTNESALVKEKELSIELANIRDEVAFHTAKCEKLQKEKEELERRFEDEVKRLGWQQQAELQELEERLQLQFEAEMARLQEEHGDQLLSIRCQHQEQVEDLTASHDAALLEMENNHTVAITILQDDHDHKVQELMSTHELEKKELEENFEKLRLSLQDQVDTLTFQSQSLRDRARRFEEALRKNTEEQLEIALAPYQHLEEDMKSLKQVLEMKNQQIHEQEKKILELEKLAEKNIILEEKIQVLQQQNEDLKARIDQNTVVTRQLSEENANLQEYVEKETQEKKRLSRTNEELLWKLQTGDPTSPIKLSPTSPVYRGSSSGPSSPARVSTTPR
# B7: Lymphokine-activated killer T-cell-originated protein kinase (Homo sapiens), Q96KB5 (parent)
# chain: MEGISNFKTPSKLSEKKKSVLCSTPTINIPASPFMQKLGFGTGVNVYLMKRSPRGLSHSPWAVKKINPICNDHYRSVYQKRLMDEAKILKSLHHPNIVGYRAFTEANDGSLCLAMEYGGEKSLNDLIEERYKASQDPFPAAIILKVALNMARGLKYLHQEKKLLHGDIKSSNVVIKGDFETIKICDVGVSLPLDENMTVTDPEACYIGTEPWKPKEAVEENGVITDKADIFAFGLTLWEMMTLSIPHINLSNDDDDEDKTFDESDFDDEAYYAALGTRPPINMEELDESYQKVIELFSVCTNEDPKDRPSAAHIVEALETDV
# partner: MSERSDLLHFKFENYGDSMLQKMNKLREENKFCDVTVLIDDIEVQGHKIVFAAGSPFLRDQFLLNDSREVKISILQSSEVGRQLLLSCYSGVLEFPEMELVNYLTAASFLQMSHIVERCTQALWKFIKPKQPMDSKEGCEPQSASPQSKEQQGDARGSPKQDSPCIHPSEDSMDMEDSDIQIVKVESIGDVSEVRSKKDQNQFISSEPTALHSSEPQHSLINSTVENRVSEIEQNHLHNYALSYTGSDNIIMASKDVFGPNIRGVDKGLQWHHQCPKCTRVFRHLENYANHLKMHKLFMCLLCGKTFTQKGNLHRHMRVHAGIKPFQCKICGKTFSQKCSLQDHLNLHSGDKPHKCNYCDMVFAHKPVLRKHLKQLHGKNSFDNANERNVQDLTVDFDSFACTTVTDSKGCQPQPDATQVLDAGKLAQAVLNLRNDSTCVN
# Variants of: B1
# Conditions: with ei2bd_human EIF2B4, Q9UI10
row,Variant,effect of a mutation on the interaction
1,A127V,with no effect

# Variants of: B2
# Conditions: with fhl3_human FHL3, Q13643
row,Variant,effect of a mutation on the interaction
1,A408T,with no effect
2,A453T,with no effect

# Variants of: B2
# Conditions: with traf1_human TRAF1, Q13077
row,Variant,effect of a mutation on the interaction
1,A408T,with no effect
2,A453T,with no effect

# Variants of: B3
# Conditions: with kr412_human KRTAP4-12, Q9BQ66
row,Variant,effect of a mutation on the interaction
1,G20S,with no effect

# Variants of: B4
# Conditions: with goga2_human GOLGA2, Q08379
row,Variant,effect of a mutation on the interaction
1,R158H,with no effect
2,S230T,with no effect

# Variants of: B5
# Conditions: with t2ag_human GTF2A2, P52657
row,Variant,effect of a mutation on the interaction
1,P208S,with no effect

# Variants of: B6
# Conditions: with catz_human CTSZ
row,Variant,effect of a mutation on the interaction
1,A89V,with no effect

# Variants of: B6
# Conditions: with zn136_human ZNF136, P52737
row,Variant,effect of a mutation on the interaction
1,A89V,with no effect

# Variants of: B6
# Conditions: with TSGA10IP
row,Variant,effect of a mutation on the interaction
1,A89V,with no effect

# Variants of: B6
# Conditions: with kat5_human KAT5, Q92993
row,Variant,effect of a mutation on the interaction
1,A89V,with no effect

# Variants of: B6
# Conditions: with cd5r1_human CDK5R1, Q15078
row,Variant,effect of a mutation on the interaction
1,A89V,with no effect

# Variants of: B6
# Conditions: with bmp7_human BMP7, P18075
row,Variant,effect of a mutation on the interaction
1,A89V,with no effect

# Variants of: B6
# Conditions: with gtpba_human GTPBP10, A4D1E9
row,Variant,effect of a mutation on the interaction
1,A89V,with no effect

# Variants of: B6
# Conditions: with cdkl3_human CDKL3, Q8IVW4
row,Variant,effect of a mutation on the interaction
1,A89V,with no effect

# Variants of: B6
# Conditions: with cu058_human C21orf58, P58505
row,Variant,effect of a mutation on the interaction
1,A89V,with no effect

# Variants of: B6
# Conditions: with zn426_human ZNF426, Q9BUY5
row,Variant,effect of a mutation on the interaction
1,A89V,with no effect

# Variants of: B6
# Conditions: with snai1_human SNAI1, O95863
row,Variant,effect of a mutation on the interaction
1,A89V,with no effect

# Variants of: B6
# Conditions: with zn329_human ZNF329, Q86UD4
row,Variant,effect of a mutation on the interaction
1,A89V,with no effect

# Variants of: B7
# Conditions: with zbt26_human ZBTB26, Q9HCK0
row,Variant,effect of a mutation on the interaction
1,K87M,with no effect
2,N107S,disrupting interaction strength
